# Columns and labels:
# HeLa Kyoto [1] = experiment: solubility in G1/S (NP-40 vs SDS abundance) (log2 ratio); higher = more soluble; settings: cell cycle stage: G1/S
# HeLa Kyoto [2] = experiment: melting temperature (median over replicates), in situ; higher = more thermally stable
# HeLa Kyoto [3] = experiment: solubility change mitosis vs G1/S (difference of NP-40 vs SDS log2 ratios) (log2 ratio difference); higher = more soluble in mitosis
# HeLa Kyoto [4] = experiment: thermal stability score vs G1/S (z-score of summed log2 fold changes over temperatures); higher = more thermally stable than in G1/S
# [5] = cell cycle stage: early G1 (4.5 h after nocodazole release)
# 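Throughout, for melting temperature (median over replicates), in situ: HeLa Kyoto cells synchronized by double thymidine or nocodazole block, proteins quantified by TMT10plex mass spectrometry, three independent biological replicates.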
# 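Throughout, for solubility change mitosis vs G1/S (difference of NP-40 vs SDS log2 ratios): synchronized HeLa Kyoto cells (double thymidine block for G1/S, nocodazole release for mitosis), protein amounts in NP-40 versus SDS lysates quantified by mass spectrometry, three biological replicates.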
# 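Throughout, for solubility in G1/S (NP-40 vs SDS abundance): HeLa Kyoto cells arrested at G1/S by double thymidine block, proteins quantified by TMT10plex mass spectrometry in mild NP-40 versus SDS extracts, three biological replicates.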
# 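Throughout, for thermal stability score vs G1/S (z-score of summed log2 fold changes over temperatures): synchronized HeLa Kyoto cells, proteins quantified by TMT10plex mass spectrometry, three biological replicates, mitosis taken 0.5 h after nocodazole release, G1/S directly after double thymidine block.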
Sequence,solubility in G1/S (log2) (HeLa Kyoto [1]),melting temperature (HeLa Kyoto [2]; cell cycle stage: G1/S),melting temperature (HeLa Kyoto [2]; cell cycle stage: mitosis),solubility change mitosis (log2) (HeLa Kyoto [3]),thermal stability score (HeLa Kyoto [4]; [5]),thermal stability score (HeLa Kyoto [4]; cell cycle stage: mitosis)
MANEVIKCKAAVAWEAGKPLSIEEIEVAPPKAHEVRIKIIATAVCHTDAYTLSGADPEGCFPVILGHEGAGIVESVGEGVTKLKAGDTVIPLYIPQCGECKFCLNPKTNLCQKIRVTQGKGLMPDGTSRFTCKGKTILHYMGTSTFSEYTVVADISVAKIDPLAPLDKVCLLGCGISTGYGAAVNTAKLEPGSVCAVFGLGGVGLAVIMGCKVAGASRIIGVDINKDKFARAKEFGATECINPQDFSKPIQEVLIEMTDGGVDYSFECIGNVKVMRAALEACHKGWGVSVVVGVAASGEEIATRPFQLVTGRTWKGTAFGGWKSVESVPKLVSEYMSKKIKVDEFVTHNLSFDEINKAFELMHSGKSIRTVVKI [ADH5],0.147,56.8 °C,56.7 °C,-0.171,-4.67,-2.86
MANIAVQRIKREFKEVLKSEETSKNQIKVDLVDENFTELRGEIAGPPDTPYEGGRYQLEIKIPETYPFNPPKVRFITKIWHPNISSVTGAICLDILKDQWAAAMTLRTVLLSLQALLAAAEPDDPQDAVVANQYKQNPEMFKQTARLWAHVYAGAPVSSPEYTKKIENLCAMGFDRNAVIVALSSKSWDVETATELLLSN [UBE2K],0.332,53.2 °C,53.9 °C,-0.0147,-2.17,0.646
MANLLKTVVTGCSCPLLSNLGSCKGLRVKKDFLRTFYTHQELWCKAPVKPGIPYKQLTVGVPKEIFQNEKRVALSPAGVQNLVKQGFNVVVESGAGEASKFSDDHYRVAGAQIQGAKEVLASDLVVKVRAPMVNPTLGVHEADLLKTSGTLISFIYPAQNPELLNKLSQRKTTVLAMDQVPRVTIAQGYDALSSMANIAGYKAVVLAANHFGRFFTGQITAAGKVPPAKILIVGGGVAGLASAGAAKSMGAIVRGFDTRAAALEQFKSLGAEPLEVDLKESGEGQGGYAKEMSKEFIEAEMKLFAQQCKEVDILISTALIPGKKAPVLFNKEMIESMKEGSVVVDLAAEAGGNFETTKPGELYIHKGITHIGYTDLPSRMATQASTLYSNNITKLLKAISPDKDNFYFDVKDDFDFGTMGHVIRGTVVMKDGKVIFPAPTPKNIPQGAPVKQKTVAELEAEKAATITPFRKTMSTASAYTAGLTGILGLGIAAPNLAFSQMVTTFGLAGIVGYHTVWGVTPALHSPLMSVTNAISGLTAVGGLALMGGHLYPSTTSQGLAALAAFISSVNIAGGFLVTQRMLDMFKRPTDPPEYNYLYLLPAGTFVGGYLAALYSGYNIEQIMYLGSGLCCVGALAGLSTQGTARLGNALGMIGVAGGLAATLGVLKPGPELLAQMSGAMALGGTIGLTIAKRIQISDLPQLVAAFHSLVGLAAVLTCIAEYIIEYPHFATDAAANLTKIVAYLGTYIGGVTFSGSLIAYGKLQGLLKSAPLLLPGRHLLNAGLLAASVGGIIPFMVDPSFTTGITCLGSVSALSAVMGVTLTAAIGGADMPVVITVLNSYSGWALCAEGFLLNNNLLTIVGALIGSSGAILSYIMCVAMNRSLANVILGGYGTTSTAGGKPMEISGTHTEINLDNAIDMIREANSIIITPGYGLCAAKAQYPIADLVKMLTEQGKKVRFGIHPVAGRMPGQLNVLLAEAGVPYDIVLEMDEINHDFPDTDLVLVIGANDTVNSAAQEDPNSIIAGMPVLEVWKSKQVIVMKRSLGVGYAAVDNPIFYKPNTAMLLGDAKKTCDALQAKVRESYQK [NNT],0.11,53.4 °C,53.4 °C,-0.0884,-1.09,-1.47
MANQVNGNAVQLKEEEEPMDTSSVTHTEHYKTLIEAGLPQKVAERLDEIFQTGLVAYVDLDERAIDALREFNEEGALSVLQQFKESDLSHVQNKSAFLCGVMKTYRQREKQGSKVQESTKGPDEAKIKALLERTGYTLDVTTGQRKYGGPPPDSVYSGVQPGIGTEVFVGKIPRDLYEDELVPLFEKAGPIWDLRLMMDPLSGQNRGYAFITFCGKEAAQEAVKLCDSYEIRPGKHLGVCISVANNRLFVGSIPKNKTKENILEEFSKVTEGLVDVILYHQPDDKKKNRGFCFLEYEDHKSAAQARRRLMSGKVKVWGNVVTVEWADPVEEPDPEVMAKVKVLFVRNLATTVTEEILEKSFSEFGKLERVKKLKDYAFVHFEDRGAAVKAMDEMNGKEIEGEEIEIVLAKPPDKKRKERQAARQASRSTAYEDYYYHPPPRMPPPIRGRGRGGGRGGYGYPPDYYGYEDYYDDYYGYDYHDYRGGYEDPYYGYDDGYAVRGRGGGRGGRGAPPPPRGRGAPPPRGRAGYSQRGAPLGPPRGSRGGRGGPAQQQRGRGSRGSRGNRGGNVGGKRKADGYNQPDSKRRQTNNQQNWGSQPIAQQPLQQGGDYSGNYGYNNDNQEFYQDTYGQQWK [HNRNPR],-0.12,47.8 °C,49.4 °C,0.234,2.99,8.2
